Reference: patent publication US20010043931A1, “Human respiratory syncytial virus” (Whitehead Institute for Biomedical Research, priority 1999, published 2001)

T1: HRSV-N51 peptide (residues 157-207 of HRSV F0) (human respiratory syncytial virus …)
T1 construct: Made by proteinase K trimming of the HRSV-N57/C45 complex
T1 peptide: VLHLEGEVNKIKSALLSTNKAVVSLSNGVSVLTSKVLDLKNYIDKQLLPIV

B1: HRSV-C39 peptide (residues 482-520 of HRSV F0) (peptide)
peptide: VFPSDEFDASISQVNEKINQSLAFIRKSDELLHNVNAGK
notes: Made by proteinase K trimming of the HRSV-N57/C45 complex

Tests used:
[1] = Thermal denaturation followed by circular dichroism (CD) spectroscopy; format: physicochemical; settings: at 10 μM in PBS
Method: CD spectra were measured at protein concentration 10 μM in PBS buffer using an AVIV 62 DS spectrometer (Aviv Associates, Lakewood, N.J.), as described (Fass, D. & Kim, P. S., Curr. Biol., 5:1377-1383 (1995).

[2] = target: T1, HRSV-N51 peptide (residues 157-207 of …); assay: complex left after proteinase K digestion of HRSV-N57/C45; CD thermal melt

| Molecule | apparent Tm [1] | binding result [2] |
| --- | --- | --- |
| HRSV-C45: C-terminal trypsin fragment of recRSV-1, residues 476-520 of HRSV F0 (SEQ ID NO.: 2) (NFYDPLVFPSDEFDASISQVNEKINQSLAFIRKSDELLHNVNAGK) | does not show a thermal unfolding transition |  |
| HRSV-N57: N-terminal trypsin fragment of recRSV-1, residues 153-209 of HRSV F0 (SEQ ID NO.: 1) (AVSKVLHLEGEVNKIKSALLSTNKAVVSLSNGVSVLTSKVLDLKNYIDKQLLPIVNK) | 40-50 °C |  |
| B1 |  | binds |
